The source of these data is the supplement of paper PMC9112550, “Optimization of the antimicrobial peptide Bac7 by deep mutational scanning” (BMC Biology, 2022).

In the series the test system is Escherichia coli TOP10. Briefly: shrunken log2 fold change of peptide-encoding DNA abundance (4.5 h post-induction vs induction); higher = less antimicrobial activity (less host growth inhibition). The following applies: time post-induction: 4.5 h; library: site-saturation at positions 5, 18, 19, 20.
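Note: peptides expressed intracellularly from a pBAD plasmid library in pooled LB shake-flask culture, induced with 0.3% L-arabinose, DNA abundance read by NGS, three biological replicates, DESeq2 with apeglm shrinkage.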

As to RRIRQRPPRLPRPRPRPWMEPRP, the “shrunken log2 fold change” value is -3.98e-05.

In the case of RRIRRRPPRLPRPRPRPMQWPRP, the “shrunken log2 fold change” value is 0.103.

Turning to RRIRKRPPRLPRPRPRPKWHPRP, the “shrunken log2 fold change” value stood at 0.0114.

With RRIRDRPPRLPRPRPRPNRLPRP, the “shrunken log2 fold change” value worked out at 0.0873.

As to RRIRKRPPRLPRPRPRPQVVPRP, the “shrunken log2 fold change” value was -0.0176.

Regarding RRIRFRPPRLPRPRPRPTVSPRP, the “shrunken log2 fold change” value is -0.00542.

With RRIRHRPPRLPRPRPRPKGMPRP, the “shrunken log2 fold change” value is -0.448.

For the sequence RRIRPRPPRLPRPRPRPKQWPRP, the “shrunken log2 fold change” value was -0.22.

RRIRVRPPRLPRPRPRPGDLPRP: the “shrunken log2 fold change” value is -0.211.

For the sequence RRIRLRPPRLPRPRPRPLEIPRP, the “shrunken log2 fold change” value is -0.0425.

In the case of RRIRGRPPRLPRPRPRPKKWPRP, the “shrunken log2 fold change” value was -0.00138.

Consider RRIRIRPPRLPRPRPRPYVFPRP, for which the “shrunken log2 fold change” value was -0.0874.

Turning to RRIRDRPPRLPRPRPRPFADPRP, the “shrunken log2 fold change” value is -0.0225.

Regarding RRIRSRPPRLPRPRPRPNKFPRP, the “shrunken log2 fold change” value was -0.36.

Regarding RRIRTRPPRLPRPRPRPEGWPRP, the “shrunken log2 fold change” value was determined as 0.688.

As to RRIRMRPPRLPRPRPRPLVRPRP, the “shrunken log2 fold change” value came out at 0.51.

For RRIRYRPPRLPRPRPRPFDQPRP, the “shrunken log2 fold change” value is -0.401.

As for RRIRPRPPRLPRPRPRPNWAPRP, the “shrunken log2 fold change” value is 0.176.

In the case of RRIRMRPPRLPRPRPRPKRHPRP, the “shrunken log2 fold change” value is 0.351.

As for RRIRERPPRLPRPRPRPPGSPRP, the “shrunken log2 fold change” value was -0.0206.

For RRIRERPPRLPRPRPRPKCEPRP, the “shrunken log2 fold change” value was 0.0279.

For RRIRRRPPRLPRPRPRPHKTPRP, the “shrunken log2 fold change” value was determined as 0.107.

For RRIRLRPPRLPRPRPRPRSFPRP, the “shrunken log2 fold change” value is -0.107.

As to RRIRVRPPRLPRPRPRPICGPRP, the “shrunken log2 fold change” value worked out at 0.0607.

As for RRIRYRPPRLPRPRPRPRFAPRP, the “shrunken log2 fold change” value is -0.152.

Consider RRIRERPPRLPRPRPRPYIFPRP, for which the “shrunken log2 fold change” value was -0.15.

With RRIRDRPPRLPRPRPRPHNTPRP, the “shrunken log2 fold change” value is -0.531.

With RRIRNRPPRLPRPRPRPKTPPRP, the “shrunken log2 fold change” value was found to be 0.228.

With RRIRDRPPRLPRPRPRPDRKPRP, the “shrunken log2 fold change” value is -0.055.

With RRIRMRPPRLPRPRPRPRLRPRP, the “shrunken log2 fold change” value was found to be 1.17.

For RRIRWRPPRLPRPRPRPSCVPRP, the “shrunken log2 fold change” value was determined as 0.121.

As to RRIRPRPPRLPRPRPRPLPWPRP, the “shrunken log2 fold change” value was 0.592.

With RRIRLRPPRLPRPRPRPAFSPRP, the “shrunken log2 fold change” value came out at 0.106.

With RRIRCRPPRLPRPRPRPHNPPRP, the “shrunken log2 fold change” value is -0.377.

Regarding RRIRSRPPRLPRPRPRPCVWPRP, the “shrunken log2 fold change” value came out at 0.8.

As for RRIRFRPPRLPRPRPRPQMLPRP, the “shrunken log2 fold change” value is -0.179.

On to RRIRARPPRLPRPRPRPYFQPRP, for which the “shrunken log2 fold change” value was -0.383.

Regarding RRIRVRPPRLPRPRPRPFKVPRP, the “shrunken log2 fold change” value is -0.243.

Turning to RRIRERPPRLPRPRPRPFEPPRP, the “shrunken log2 fold change” value was -0.195.

RRIRIRPPRLPRPRPRPFAMPRP: the “shrunken log2 fold change” value was -0.98.

With RRIRLRPPRLPRPRPRPDQTPRP, the “shrunken log2 fold change” value worked out at 0.0206.

RRIRKRPPRLPRPRPRPLHWPRP: the “shrunken log2 fold change” value turned out to be 0.59.

Turning to RRIRCRPPRLPRPRPRPMFEPRP, the “shrunken log2 fold change” value was -0.212.

In the case of RRIRLRPPRLPRPRPRPTSQPRP, the “shrunken log2 fold change” value was -0.145.

Consider RRIRMRPPRLPRPRPRPKANPRP, for which the “shrunken log2 fold change” value turned out to be 1.96.

In the case of RRIRVRPPRLPRPRPRPMKPPRP, the “shrunken log2 fold change” value is -0.0376.

For the sequence RRIRARPPRLPRPRPRPMNIPRP, the “shrunken log2 fold change” value is -0.583.

Turning to RRIRNRPPRLPRPRPRPSLKPRP, the “shrunken log2 fold change” value was -0.47.

In the case of RRIRSRPPRLPRPRPRPKATPRP, the “shrunken log2 fold change” value is 0.7.

As for RRIRVRPPRLPRPRPRPCESPRP, the “shrunken log2 fold change” value was -0.374.

For RRIRGRPPRLPRPRPRPLGKPRP, the “shrunken log2 fold change” value was found to be 0.362.

As for RRIRNRPPRLPRPRPRPYHTPRP, the “shrunken log2 fold change” value was -0.0317.

As to RRIRHRPPRLPRPRPRPRMFPRP, the “shrunken log2 fold change” value was -0.219.

RRIRWRPPRLPRPRPRPHGFPRP: the “shrunken log2 fold change” value came out at 0.407.

In the case of RRIRSRPPRLPRPRPRPRGVPRP, the “shrunken log2 fold change” value was determined as 0.749.

RRIRYRPPRLPRPRPRPRDIPRP: the “shrunken log2 fold change” value is -0.0839.

Take RRIRHRPPRLPRPRPRPDMTPRP: the “shrunken log2 fold change” value was -0.06.

As for RRIRNRPPRLPRPRPRPDPAPRP, the “shrunken log2 fold change” value came to 0.172.

Consider RRIRMRPPRLPRPRPRPCTKPRP, for which the “shrunken log2 fold change” value amounted to 2.28.

On to RRIRFRPPRLPRPRPRPIWMPRP, for which the “shrunken log2 fold change” value was -0.226.

With RRIRERPPRLPRPRPRPLNQPRP, the “shrunken log2 fold change” value was -0.547.

RRIRDRPPRLPRPRPRPTRYPRP: the “shrunken log2 fold change” value is 0.317.

In the case of RRIRKRPPRLPRPRPRPCVHPRP, the “shrunken log2 fold change” value was -0.266.

For the sequence RRIRLRPPRLPRPRPRPNAAPRP, the “shrunken log2 fold change” value is -0.0536.

For RRIRHRPPRLPRPRPRPHKFPRP, the “shrunken log2 fold change” value was -0.636.

RRIRPRPPRLPRPRPRPFQEPRP: the “shrunken log2 fold change” value was -0.185.

For RRIRRRPPRLPRPRPRPDMHPRP, the “shrunken log2 fold change” value was -0.203.

As for RRIRVRPPRLPRPRPRPHDKPRP, the “shrunken log2 fold change” value is -0.123.

For the sequence RRIRCRPPRLPRPRPRPNEYPRP, the “shrunken log2 fold change” value is -0.587.

For the sequence RRIRIRPPRLPRPRPRPSLDPRP, the “shrunken log2 fold change” value is -0.564.

As for RRIRQRPPRLPRPRPRPASTPRP, the “shrunken log2 fold change” value is -0.0855.

For the sequence RRIRTRPPRLPRPRPRPMHEPRP, the “shrunken log2 fold change” value is -0.0192.

Regarding RRIRFRPPRLPRPRPRPPKSPRP, the “shrunken log2 fold change” value turned out to be 0.234.

Take RRIRGRPPRLPRPRPRPAVDPRP: the “shrunken log2 fold change” value is 0.896.

RRIRHRPPRLPRPRPRPNKFPRP: the “shrunken log2 fold change” value is -0.284.

Consider RRIRYRPPRLPRPRPRPSTKPRP, for which the “shrunken log2 fold change” value is -0.225.

On to RRIRFRPPRLPRPRPRPRWVPRP, for which the “shrunken log2 fold change” value came to 0.191.

In the case of RRIRSRPPRLPRPRPRPCEIPRP, the “shrunken log2 fold change” value is -0.0377.

RRIRARPPRLPRPRPRPGWRPRP: the “shrunken log2 fold change” value was found to be 0.473.

Regarding RRIRNRPPRLPRPRPRPHAWPRP, the “shrunken log2 fold change” value was -0.0119.

In the case of RRIRERPPRLPRPRPRPAFKPRP, the “shrunken log2 fold change” value was found to be 0.106.

For RRIRRRPPRLPRPRPRPKQHPRP, the “shrunken log2 fold change” value was 0.302.

As to RRIRERPPRLPRPRPRPQQSPRP, the “shrunken log2 fold change” value was -0.05.

As for RRIRFRPPRLPRPRPRPPYLPRP, the “shrunken log2 fold change” value is -0.465.

As for RRIRYRPPRLPRPRPRPDWNPRP, the “shrunken log2 fold change” value is -0.428.

For RRIRERPPRLPRPRPRPIMDPRP, the “shrunken log2 fold change” value was -0.247.

In the case of RRIRHRPPRLPRPRPRPDYMPRP, the “shrunken log2 fold change” value was -0.336.

For the sequence RRIRCRPPRLPRPRPRPITEPRP, the “shrunken log2 fold change” value was -0.206.

Regarding RRIRSRPPRLPRPRPRPTMDPRP, the “shrunken log2 fold change” value was -0.262.

RRIRIRPPRLPRPRPRPLWHPRP: the “shrunken log2 fold change” value is -0.105.

Take RRIRKRPPRLPRPRPRPISPPRP: the “shrunken log2 fold change” value worked out at 0.305.

For RRIRYRPPRLPRPRPRPWGKPRP, the “shrunken log2 fold change” value was -0.461.

With RRIRYRPPRLPRPRPRPCHRPRP, the “shrunken log2 fold change” value is -0.169.

As to RRIRLRPPRLPRPRPRPHFDPRP, the “shrunken log2 fold change” value was -0.212.

For the sequence RRIRHRPPRLPRPRPRPLPAPRP, the “shrunken log2 fold change” value turned out to be 0.192.

Take RRIRERPPRLPRPRPRPQTQPRP: the “shrunken log2 fold change” value is -0.0049.

Take RRIRARPPRLPRPRPRPYHMPRP: the “shrunken log2 fold change” value is 0.00865.

For the sequence RRIRFRPPRLPRPRPRPSADPRP, the “shrunken log2 fold change” value is 0.157.

With RRIRIRPPRLPRPRPRPDEWPRP, the “shrunken log2 fold change” value is -0.0975.

Turning to RRIRPRPPRLPRPRPRPPFFPRP, the “shrunken log2 fold change” value amounted to 0.415.

Regarding RRIRMRPPRLPRPRPRPTFQPRP, the “shrunken log2 fold change” value worked out at 0.428.

As for RRIRERPPRLPRPRPRPIWAPRP, the “shrunken log2 fold change” value is 0.639.

Turning to RRIRGRPPRLPRPRPRPVVDPRP, the “shrunken log2 fold change” value came out at 0.873.

As to RRIRWRPPRLPRPRPRPRGSPRP, the “shrunken log2 fold change” value was 0.495.

On to RRIRVRPPRLPRPRPRPICNPRP, for which the “shrunken log2 fold change” value was -0.183.

With RRIRQRPPRLPRPRPRPFERPRP, the “shrunken log2 fold change” value was 0.0412.

With RRIRARPPRLPRPRPRPFYRPRP, the “shrunken log2 fold change” value was -0.178.

In the case of RRIRWRPPRLPRPRPRPMFGPRP, the “shrunken log2 fold change” value was -0.0457.

With RRIRIRPPRLPRPRPRPMPIPRP, the “shrunken log2 fold change” value was -0.0218.

Turning to RRIRCRPPRLPRPRPRPIRVPRP, the “shrunken log2 fold change” value is 0.161.

For RRIRNRPPRLPRPRPRPMLTPRP, the “shrunken log2 fold change” value is -0.296.

As to RRIRPRPPRLPRPRPRPENCPRP, the “shrunken log2 fold change” value is 0.151.

RRIRFRPPRLPRPRPRPPAFPRP: the “shrunken log2 fold change” value stood at 0.112.

As to RRIRVRPPRLPRPRPRPFSIPRP, the “shrunken log2 fold change” value was -0.349.

As for RRIRERPPRLPRPRPRPQNWPRP, the “shrunken log2 fold change” value was -0.0518.

On to RRIRPRPPRLPRPRPRPKQRPRP, for which the “shrunken log2 fold change” value turned out to be 0.186.

For RRIRHRPPRLPRPRPRPVPSPRP, the “shrunken log2 fold change” value came to 0.0513.

Turning to RRIRRRPPRLPRPRPRPWQQPRP, the “shrunken log2 fold change” value is -0.0108.

As for RRIRLRPPRLPRPRPRPATSPRP, the “shrunken log2 fold change” value was -0.149.

With RRIRIRPPRLPRPRPRPNDMPRP, the “shrunken log2 fold change” value was -1.13.

Regarding RRIRWRPPRLPRPRPRPFAHPRP, the “shrunken log2 fold change” value is -0.0296.

In the case of RRIRARPPRLPRPRPRPQTRPRP, the “shrunken log2 fold change” value was 0.874.

As for RRIRWRPPRLPRPRPRPRWNPRP, the “shrunken log2 fold change” value was -0.0693.

Turning to RRIRGRPPRLPRPRPRPTGGPRP, the “shrunken log2 fold change” value was determined as 0.887.

As to RRIRKRPPRLPRPRPRPENEPRP, the “shrunken log2 fold change” value was 0.918.
